Measured values taken from patent US11833164B2, “Methods of treating Fabry disease in patients having a mutation in the GLA gene” (Amicus Therapeutics, Inc., priority 2019, dated 2023).
Changes are numbered by the printed parent chain. In names and notes the source's numbering stands.

B1: D335G (protein)
chain: MQLRNPELHLGCALALRFLALVSWDIPGARALDNGLARTPTMGWLHWERFMCNLDCQEEPDSCISEKLFMEMAELMVSEGWKDAGYEYLCIDDCWMAPQRDSEGRLQADPQRFPHGIRQLANYVHSKGLKLGIYADVGNKTCAGFPGSFGYYDIDAQTFADWGVDLLKFDGCYCDSLENLADGYKHMSLALNRTGRSIVYSCEWPLYMWPFQKPNYTEIRQYCNHWRNFADIDDSWKSIKSILDWTSFNQERIVDVAGPGGWNDPDMLVIGNFGLSWNQQVTQMALWAIMAAPLFMSNDLRHISPQAKALLQDKDVIAINQDPLGKQGYQLRQGGNFEVWERPLSGLAWAVAMINRQEIGGPRSYTIAVASLGKGVACNPACFITQLLPVKRKLGFYEWTSRLRSHINPTGTVLLQLENTMQMSLKDLL
B2: E338G (protein)
chain: B1 chain with G335D, E338G
B3: D335Y (protein)
chain: B1 chain with G335Y
B4: F337Y (protein)
chain: B1 chain with G335D, F337Y
B5: N336I (protein)
chain: B1 chain with G335D, N336I
B6: D335V (protein)
chain: B1 chain with G335V
B7: E338D (protein)
chain: B1 chain with G335D, E338D
B8: F337L (protein)
chain: B1 chain with G335D, F337L
B9: F337C (protein)
chain: B1 chain with G335D, F337C
B10: F337V (protein)
chain: B1 chain with G335D, F337V
B11: E338A (protein)
chain: B1 chain with G335D, E338A
B12: N336T (protein)
chain: B1 chain with G335D, N336T
B13: P343S (protein)
chain: B1 chain with G335D, P343S
B14: P343A (protein)
chain: B1 chain with G335D, P343A
B15: E341A (protein)
chain: B1 chain with G335D, E341A
B16: N336Y (protein)
chain: B1 chain with G335D, N336Y
B17: L344F (protein)
chain: B1 chain with G335D, L344F
B18: N336S (protein)
chain: B1 chain with G335D, N336S
B19: N336D (protein)
chain: B1 chain with G335D, N336D
B20: E341Q (protein)
chain: B1 chain with G335D, E341Q
B21: V339M (protein)
chain: B1 chain with G335D, V339M

system: mutant form of α-Gal A expressed in HEK-293 cells; assay: HEK assay (GLP HEK / Migalastat Amenability Assay): α-Gal A activity in lysates of transiently transfected HEK-293 cells incubated with or without 10 μM migalastat; format: cell-based, human; conditions: 10 μM migalastat versus baseline
Procedure, shortened: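 HEK-293 cells transiently transfected with mutant α-Gal A and incubated with or without 10 μM migalastat; lysate activity given as nmol free 4-MU released per mg protein per hour. Values are mean±SEM.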

Molecule	Absolute increase (% WT)	Relative increase
B1	15.7 % WT	1.3
B2	16.8 % WT	2.0
B3	11.0 % WT	1.3
B4	21.6 % WT	1.4
B5	23.0 % WT	2.1
B6	19.4 % WT	2.1
B7	15.2 % WT	1.2
B8	20.8 % WT	1.4
B9	19.0 % WT	1.9
B10	31.1 % WT	1.4
B11	24.8 % WT	1.7
B12	29.7 % WT	2.0
B13	19.0 % WT	1.3
B14	21.2 % WT	1.3
B15	11.6 % WT	4.1
B16	16.6 % WT	1.3
B17	9.0 % WT	16.7
B18	18.7 % WT	1.2
B19	34.3 % WT	1.7
B20	19.7 % WT	1.4
B21	18.2 % WT	1.3

same assay, conditions: absence of migalastat; percentage of baseline wild-type α-Gal A activity; mean ± SEM

Molecule	Baseline α-Gal A activity (% WT)
B1	51.3 ± 2.8 % WT
B2	17.1 ± 1.1 % WT
B3	43 ± 1.7 % WT
B4	52.3 ± 4.2 % WT
B5	20.7 ± 2.7 % WT
B6	18.1 ± 0.6 % WT
B7	65.7 ± 4.9 % WT
B8	57.8 ± 4.8 % WT
B9	21.7 ± 0.8 % WT
B10	65.9 ± 4.1 % WT
B11	39.5 ± 2.3 % WT
B12	28.9 ± 1.3 % WT
B13	62.1 ± 2.7 % WT
B14	69.5 ± 4.9 % WT
B15	3.8 ± 0.4 % WT
B16	66.3 ± 3.7 % WT
B17	0.6 ± 0.1 % WT
B18	79.7 ± 3.8 % WT
B19	53.7 ± 2.8 % WT
B20	55.5 ± 3.7 % WT
B21	63.5 ± 2.9 % WT

same assay, conditions: lysates of HEK-293 cells transiently transfected with the mutant form, incubated 5 days in absence of migalastat; mean ± SEM

Molecule	Baseline α-Gal A activity
B1	22766 ± 1355 nmol/mg/h
B2	6415 ± 391 nmol/mg/h
B3	19469 ± 982 nmol/mg/h
B4	21577 ± 1930 nmol/mg/h
B5	8544 ± 1083 nmol/mg/h
B6	7938 ± 336 nmol/mg/h
B7	25700 ± 1958 nmol/mg/h
B8	23197 ± 2254 nmol/mg/h
B9	9557 ± 452 nmol/mg/h
B10	29582 ± 2747 nmol/mg/h
B11	15626 ± 769 nmol/mg/h
B12	12743 ± 709 nmol/mg/h
B13	22132 ± 1243 nmol/mg/h
B14	25254 ± 2385 nmol/mg/h
B15	1444 ± 159 nmol/mg/h
B16	29615 ± 1640 nmol/mg/h
B17	217 ± 25 nmol/mg/h
B18	32974 ± 2396 nmol/mg/h
B19	23869 ± 1072 nmol/mg/h
B20	20802 ± 2164 nmol/mg/h
B21	26113 ± 1116 nmol/mg/h

same assay, conditions: lysates of HEK-293 cells transiently transfected with the mutant form, incubated 5 days with 10 μM migalastat; mean ± SEM

Molecule	10 μM migalastat α-Gal A activity
B1	30341 ± 3325 nmol/mg/h
B2	12588 ± 538 nmol/mg/h
B3	24732 ± 2214 nmol/mg/h
B4	30991 ± 2695 nmol/mg/h
B5	18303 ± 1404 nmol/mg/h
B6	16557 ± 929 nmol/mg/h
B7	31632 ± 1825 nmol/mg/h
B8	31963 ± 2641 nmol/mg/h
B9	17991 ± 960 nmol/mg/h
B10	42718 ± 2776 nmol/mg/h
B11	25719 ± 1376 nmol/mg/h
B12	25898 ± 1374 nmol/mg/h
B13	29289 ± 2351 nmol/mg/h
B14	32890 ± 2292 nmol/mg/h
B15	5855 ± 690 nmol/mg/h
B16	37475 ± 2540 nmol/mg/h
B17	3629 ± 614 nmol/mg/h
B18	40651 ± 2487 nmol/mg/h
B19	39534 ± 2519 nmol/mg/h
B20	28411 ± 2891 nmol/mg/h
B21	33867 ± 2526 nmol/mg/h

same assay, conditions: with 10 μM migalastat, 5 days; percentage of baseline wild-type α-Gal A activity; mean ± SEM

Molecule	10 μM migalastat α-Gal A activity (% WT)
B1	67 ± 5.6 % WT
B2	33.9 ± 1.8 % WT
B3	54.1 ± 3.5 % WT
B4	73.9 ± 3.2 % WT
B5	43.8 ± 1.6 % WT
B6	37.5 ± 1.6 % WT
B7	80.9 ± 4.6 % WT
B8	78.6 ± 3.1 % WT
B9	40.7 ± 1.6 % WT
B10	97 ± 4.6 % WT
B11	64.3 ± 3 % WT
B12	58.6 ± 2.3 % WT
B13	81.1 ± 4.6 % WT
B14	90.7 ± 3.7 % WT
B15	15.4 ± 1.3 % WT
B16	83 ± 4.4 % WT
B17	9.6 ± 1.4 % WT
B18	98.4 ± 3.1 % WT
B19	88.1 ± 4.9 % WT
B20	75.2 ± 4.1 % WT
B21	81.7 ± 5 % WT
